B1: ADP-ribosylation factor 6 (Mus musculus), P62331 (parent)
chain: MGKVLSKIFGNKEMRILMLGLDAAGKTTILYKLKLGQSVTTIPTVGFNVETVTYKNVKFNVWDVGGQDKIRPLWRHYYTGTQGLIFVVDCADRDRIDEARQELHRIINDREMRDAIILIFANKQDLPDAMKPHEIQEKLGLTRIRDRNWYVQPSCATSGDGLYEGLTWLTSNYKS
partner: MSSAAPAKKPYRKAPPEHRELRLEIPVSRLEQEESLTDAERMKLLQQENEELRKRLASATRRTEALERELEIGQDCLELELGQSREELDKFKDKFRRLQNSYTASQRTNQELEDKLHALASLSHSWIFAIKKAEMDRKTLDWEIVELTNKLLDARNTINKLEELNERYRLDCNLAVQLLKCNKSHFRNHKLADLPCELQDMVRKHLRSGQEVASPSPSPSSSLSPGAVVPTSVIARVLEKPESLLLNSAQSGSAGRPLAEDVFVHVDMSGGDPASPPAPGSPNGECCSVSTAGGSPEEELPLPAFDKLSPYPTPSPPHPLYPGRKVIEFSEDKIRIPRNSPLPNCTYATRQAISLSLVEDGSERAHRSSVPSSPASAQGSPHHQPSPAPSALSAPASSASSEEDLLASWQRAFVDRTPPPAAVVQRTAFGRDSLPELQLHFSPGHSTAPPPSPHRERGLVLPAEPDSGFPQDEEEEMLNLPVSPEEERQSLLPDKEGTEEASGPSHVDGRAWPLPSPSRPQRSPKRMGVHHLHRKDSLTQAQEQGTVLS

Variants of: B1
Conditions: with tjap1_mouse Tjap1, Q9DCD5

effect of a mutation on the interaction	Variant
disrupting interaction	T44N
